Laboratory results as given in US20210338733A1.

Biological target: CD19 on CD19 positive target cell lines (UniProt P15391)
Test: cell-based or functional assay

Chain of CD19 on CD19 positive target cell lines (P15391 20-556 limits assumed): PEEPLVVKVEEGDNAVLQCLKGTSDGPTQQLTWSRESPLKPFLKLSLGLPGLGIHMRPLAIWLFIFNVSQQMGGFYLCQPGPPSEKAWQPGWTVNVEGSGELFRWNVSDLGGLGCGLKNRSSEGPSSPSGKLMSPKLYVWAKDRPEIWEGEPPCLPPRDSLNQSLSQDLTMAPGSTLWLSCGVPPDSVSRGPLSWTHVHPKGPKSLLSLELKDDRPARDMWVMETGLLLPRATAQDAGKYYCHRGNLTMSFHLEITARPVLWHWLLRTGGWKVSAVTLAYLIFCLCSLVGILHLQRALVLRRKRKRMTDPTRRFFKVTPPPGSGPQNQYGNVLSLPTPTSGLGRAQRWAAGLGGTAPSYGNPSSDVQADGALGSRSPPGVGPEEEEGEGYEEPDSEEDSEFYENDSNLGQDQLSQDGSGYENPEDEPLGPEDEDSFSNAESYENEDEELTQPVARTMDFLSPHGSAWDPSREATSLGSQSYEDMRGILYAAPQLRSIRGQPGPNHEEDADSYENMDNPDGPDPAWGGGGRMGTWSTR

Substance: CD19 CAR as expressed on CART-19 cells (anti-CD19 FMC63 scFv, human CD8α hinge and transmembrane, human 4-1BB and CD3ζ) (receptor)
- CD40L expression by CD4+ CAR T cells (flow cytometry, 24 hours of coincubation) (fold of the upregulation by CART-TnMUC1): 2
